Assay results taken from the supplement of paper PMC12764529.
± gives the half width of the 95% confidence interval.

Experiments:
[1] = folding stability dG unfold (combined trypsin and chymotrypsin); higher = more stable
How it was run: (§1)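 Only designs with AlphaFold2 dimer inter-PAE above 15 were retained; each was a mini-protein under 80 residues with no cysteine, in a PA-tagged cDNA display construct. After digestion with trypsin and chymotrypsin and sequencing, K50 was inferred by Bayesian fitting of counts, and unfolding free energy was derived per protease or combined against a sequence-predicted unfolded-state K50 and a shared folded-state K50.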

[2] = folding stability dG unfold from trypsin proteolysis; higher = more stable
How it was run: as §1

[3] = folding stability dG unfold from chymotrypsin proteolysis; higher = more stable
How it was run: as §1

| Sequence | folding stability dG unfold [1] | folding stability dG unfold [2] | folding stability dG unfold [3] |
| --- | --- | --- | --- |
| SAMSAEELAERLRERLKKLAEEEGLEVEITVTVEENEDGSLTVTITVKSEEEAERIKEKLPEGVKVEKKSAG [r14_491_TrROS_Hall] | 2.14 ± 0.21 kcal/mol | 1.43 ± 0.054 kcal/mol | 2.37 ± 0.1 kcal/mol |
| SMPLSEEEARALAEALAAEVAAAAAAAGVAGVEVPVEISRTEEGGWTITLTVTLHAGAAPVGVRPVVVEVAS [r1_364_JUSTAS] | 1.59 ± 0.081 kcal/mol | 1.19 ± 0.027 kcal/mol | 1.81 ± 0.026 kcal/mol |
| SAGGSAGGSAGTLRLEVELKLRVRNPATREWQEVTLRLEVEFEPAPPVLVRDANGRLLLLSAGGSAGGSAGG [r11_307_TrROS_Hall] | 2.98 ± 0.082 kcal/mol | 1.68 ± 0.024 kcal/mol | 3.434 ± 0.021 kcal/mol |
| SLKNGDPIMVKIEIEQYNPKNGKPQEQKHSIMIPPGDPVTINIPGLPPGYKVRVEIYPMDGKPIGEHTIPSA [r9_478_TrROS] | 1.48 ± 0.14 kcal/mol | 1.73 ± 0.12 kcal/mol | 1.14 ± 0.047 kcal/mol |
| SAGMKVIKVKGEEELEKALREEAEKKGLSEEEMKEFIEEAKKRTKIEKEGDEYYVTIEPEGKPVPGNKLSAG [r5_717_JUSTAS] | 0.474 ± 0.37 kcal/mol | 1.04 ± 0.088 kcal/mol | -0.879 ± 0.52 kcal/mol |
| SAGGSAGGSNMPPGMEVEMEPIIEREIKNPNGRKLKIKIYVMKIRPPGGPPMFFIALDIQILDSAGGSAGGS [r12_544_TrROS] | 4.52 ± 0.22 kcal/mol | 3.48 ± 0.16 kcal/mol | 5.03 ± 0.28 kcal/mol |
| SAGGSAGGSAGMLVYRTVVTTEVLETETTSFPTPEGPYVTTTTVTVKTTVTVEKLTPELLSAGGSAGGSAGG [r11_24_JUSTAS] | 2.75 ± 0.2 kcal/mol | 2.67 ± 0.14 kcal/mol | 2.61 ± 0.041 kcal/mol |
| SSSPLPSPVTLPNGTVVYYFPDTGLVLTLDPKTGTGTVTYVTTDPQGNPTFFPSTVTFDPPTGKVVEVVASA [r9_122_JUSTAS] | 2.39 ± 0.079 kcal/mol | 0.904 ± 0.058 kcal/mol | 2.77 ± 0.033 kcal/mol |
| SAGGSAAPLVLPVRIYGPNENVTAEASEYDPGTGIVRLTVTHPDGTKTTLTFTGPAALLPPDADLNSAGGSA [r15_596_TrMRF] | 0.764 ± 0.056 kcal/mol | 0.611 ± 0.023 kcal/mol | 0.849 ± 0.066 kcal/mol |
| SAGGNMWEQIRMIVRELAKEGHPWITFDKIHKELGRPITPEWREWLRDAGFIEHDPNGSMTFRIPPGASAGG [r13_188_TrROS] | 1.17 ± 0.056 kcal/mol | 1.36 ± 0.032 kcal/mol | 0.89 ± 0.1 kcal/mol |
| SAGGKKKKLKIKIVIVAKSKEEAEKLAKELAEKLKELGIKEVEIEVEVIELPPPPPPPKPDSPEYKKKSAGG [r13_6_TrROS_Hall] | 0.372 ± 0.42 kcal/mol | -0.453 ± 0.34 kcal/mol | -0.131 ± 0.36 kcal/mol |
| SAGGSAGGSSMTLTSEKTEKFTEGSKEFLKKTETWKLPGNSTLTKETIIDPSSDKYKEKISLLSAGGSAGGS [r12_1035_JUSTAS] | -0.159 ± 0.18 kcal/mol | -0.727 ± 0.24 kcal/mol | -0.0253 ± 0.24 kcal/mol |
| SAGGSAGGNITPEAKKLVEELADQISEEFPNNGMDIEVEDITWQPDGNVVIRIRFNGWTIWIPVSAGGSAGG [r6_495_TrROS] | 2.03 ± 0.16 kcal/mol | 1.44 ± 0.083 kcal/mol | 2.25 ± 0.05 kcal/mol |
| SAGGKLTITVKVNENGELIATVEITEVVENAKPGDVLTVKAKVVNPKTKETKEIEAKIKVENGKLVLESAGG [r13_208_TrROS_Hall] | 2.16 ± 0.12 kcal/mol | 2.1 ± 0.077 kcal/mol | 2.33 ± 0.069 kcal/mol |
| SAGGSAGGSAEEKVFVKLYLNPNEPPTIDLEFFFEDGRVVRLRLDLATGTLNDIDPRPLDFSAGGSAGGSAG [r3_299_TrMRF] | 2.8 ± 0.12 kcal/mol | 2.74 ± 0.082 kcal/mol | 2.97 ± 0.046 kcal/mol |
| SAGGKKIEIYKLKDALIIKIPEKGLLILLGNDTAIIFKVKSIKNNGKPKIISSKIISLEEILDLIKSSAGGS [r8_174_TrMRF] | 3.31 ± 0.13 kcal/mol | 2.79 ± 0.12 kcal/mol | 3.75 ± 0.047 kcal/mol |
| SAGGSAGGSSKAEELAKKLGVKVKIIDKFTLPGNKKVILAKVKFPGKGYALVLYDGKTPVLLPSAGGSAGGS [r12_279_TrMRF] | 1.96 ± 0.087 kcal/mol | 1.97 ± 0.07 kcal/mol | 1.86 ± 0.099 kcal/mol |
| SAGGSAGGMTFKDPNSNTTASVTEVTPTSVTVTYTLSDGTTRTVTVPTSLVTPDSTVPFTVTSSSAGGSAGG [r6_152_JUSTAS] | 0.892 ± 0.064 kcal/mol | 0.983 ± 0.032 kcal/mol | 0.789 ± 0.16 kcal/mol |
| SAGGMVIPPEATLTGSTTSWVTTSDGRKLLVTTPVYRFPGNTTVVVSTVTDPTSAASTVTVSTEPALSAGGS [r16_370_JUSTAS] | 0.374 ± 0.085 kcal/mol | 0.498 ± 0.069 kcal/mol | 0.107 ± 0.12 kcal/mol |
| SAGGPVTFEAPLEELLKALPPELVRHASVEPLGEGERRFIATVELEDRRIEAYSDPERPGRVLVTLHFSAGG [r13_942_TrMRF] | 0.569 ± 0.12 kcal/mol | 0.332 ± 0.11 kcal/mol | 0.688 ± 0.12 kcal/mol |
| SAGMMVVVELTVGFEPDEIEPEEIREAIEEHAAEVEIDPNPETDILPIRVIAEPGKIEAIVDALKEAGGSAG [r5_378_TrMRF] | 0.671 ± 0.22 kcal/mol | 1.08 ± 0.069 kcal/mol | 0.0668 ± 0.19 kcal/mol |
